From US20140274782A1, “AFFINITY REAGENTS AND METHODS FOR DETECTION, PURIFICATION, AND PROTEOMIC ANALYSIS OF METHYLATED PROTEINS” (The Board of Trustees of the Leland Stanford Junior …, priority 2013, published 2014)

Columns and labels:
[1] = test system: 3×MBT domain of L3MBTL1; assay: Triple SILAC pull-down, 3xMBT/3xMBTD355N ratio (cytoplasmic, nuclear and chromatin fractions of 293T cells); type: binding, human; conditions: for 3xMBT/D355N UNC Heavy: experiment with UNC0638 in heavy SILAC media; for 3xMBT/D355N UNC Light: experiment with UNC0638 in light SILAC media;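 as to all read-outs here: proteins quantified with MaxQuant, requiring at least two unique peptides and quantification in both label directions, normalized to the mean of proteins from a digested loading control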
Description: For stable isotope labeling by amino acids in cell culture (SILAC) experiments HEK 293T cells were grown for at least six doublings in DMEM for SILAC supplemented with 10% dialyzed fetal bovine serum (FBS), 230 mg/L L-proline and either 100 mg/L each of L-lysine and L-arginine (“light” medium), D4-L-lysine and ^13C6-L-arginine (“medium” media), or ^13C6^15N2-L-lysine and ^13C6^15N4-L-arginine (Thermo Scientific). Heavy methyl labeling used DMEM without L-Methionine or L-Cysteine supplemented with D3^13C-L-Methionine (Sigma), L-Cysteine (Sigma) and 10% dialyzed FBS.
For UNC0638 treatments cells were treated for 24 hours with UNC0638 at 2.5 μM or DMSO vehicle control. One experiment treated cells in light media with UNC0638, the other treated cells in heavy media. Both experiments included cells in medium media treated with DMSO for negative control pull-down with 3×MBTD355N.
UNC0638 treatment experiments used a Q-Exactive mass spectrometer (ThermoFisher Scientific). A 25 cm HPLC column with 3 μm Reliasil (Orochem) was used to separate peptides over a 4 hour gradient from 0 to 75% acetonitrile. Ions were generated using a custom nanospray source flowing at 250 nL/minute. Mass spectrometry settings were 70,000 MS1 resolution, data dependent selection of up to 20 precursor ions per cycle, dynamic exclusion of 30 seconds and isolation window of 2 m/z. The nuclear fraction from the experiment using UNC0638 on cells in heavy media was additionally analyzed by 2D HPLC-MS/MS as described earlier.
Peptides were identified and quantified using MaxQuant version 1.2.2.5 (Cox and Mann, supra) with the following changes to default settings: mono- and di-methylation of lysine, and oxidation of methionine, and N-terminal acetylation as variable modifications, disabled “I=L”, up to three modifications per peptide, one missed cleavage, maximum charge of 5. Protein and peptide FDR were set to 1%, and proteins were filtered post-hoc for at least two unique peptides. Proteins were excluded from an experiment if they were not quantified in both labeling directions. Because FDR is unreliable for small numbers of peptides the modification site FDR was set to 10% and all methylated peptides were manually verified. […] Quantitative protein data was normalized to the mean value among proteins identified by analyzing 50 ng of digested loading control.
For UNC0638 experiments the treated vs. untreated ratio was determined by subtracting the value from 3×MBTD355N prior to dividing values from the light and heavy channels. Only proteins showing a two-fold signal to background ratio (3×MBT/3×MBTD355N) were evaluated as potential G9a/GLP substrates.

[2] = biological target: T1, G9a and GLP (Homo sapiens, UniProt Q96KQ7+Q9H9B1); assay: Triple SILAC pull-down after UNC0638 treatment of 293T cells, DMSO/UNC0638 ratio of protein captured by 3×MBT; type: cell-based; conditions: for Relative to UNC0638 UNC Heavy: UNC0638 in heavy SILAC media; for Relative to UNC0638 UNC Light: UNC0638 in light SILAC media; for Relative to UNC0638 Average: average of UNC Light and UNC Heavy experiments;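 as to all read-outs here: mass spectrometry (Q-Exactive) SILAC quantitation, DMSO/UNC0638 ratio computed after subtracting 3×MBTD355N mutant pull-down background, only proteins with at least twofold 3×MBT over mutant signal considered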
T1 construct: endogenous in cells; host or cells: HEK 293T
T1 sequence (Q96KQ7 2-1210 limits assumed): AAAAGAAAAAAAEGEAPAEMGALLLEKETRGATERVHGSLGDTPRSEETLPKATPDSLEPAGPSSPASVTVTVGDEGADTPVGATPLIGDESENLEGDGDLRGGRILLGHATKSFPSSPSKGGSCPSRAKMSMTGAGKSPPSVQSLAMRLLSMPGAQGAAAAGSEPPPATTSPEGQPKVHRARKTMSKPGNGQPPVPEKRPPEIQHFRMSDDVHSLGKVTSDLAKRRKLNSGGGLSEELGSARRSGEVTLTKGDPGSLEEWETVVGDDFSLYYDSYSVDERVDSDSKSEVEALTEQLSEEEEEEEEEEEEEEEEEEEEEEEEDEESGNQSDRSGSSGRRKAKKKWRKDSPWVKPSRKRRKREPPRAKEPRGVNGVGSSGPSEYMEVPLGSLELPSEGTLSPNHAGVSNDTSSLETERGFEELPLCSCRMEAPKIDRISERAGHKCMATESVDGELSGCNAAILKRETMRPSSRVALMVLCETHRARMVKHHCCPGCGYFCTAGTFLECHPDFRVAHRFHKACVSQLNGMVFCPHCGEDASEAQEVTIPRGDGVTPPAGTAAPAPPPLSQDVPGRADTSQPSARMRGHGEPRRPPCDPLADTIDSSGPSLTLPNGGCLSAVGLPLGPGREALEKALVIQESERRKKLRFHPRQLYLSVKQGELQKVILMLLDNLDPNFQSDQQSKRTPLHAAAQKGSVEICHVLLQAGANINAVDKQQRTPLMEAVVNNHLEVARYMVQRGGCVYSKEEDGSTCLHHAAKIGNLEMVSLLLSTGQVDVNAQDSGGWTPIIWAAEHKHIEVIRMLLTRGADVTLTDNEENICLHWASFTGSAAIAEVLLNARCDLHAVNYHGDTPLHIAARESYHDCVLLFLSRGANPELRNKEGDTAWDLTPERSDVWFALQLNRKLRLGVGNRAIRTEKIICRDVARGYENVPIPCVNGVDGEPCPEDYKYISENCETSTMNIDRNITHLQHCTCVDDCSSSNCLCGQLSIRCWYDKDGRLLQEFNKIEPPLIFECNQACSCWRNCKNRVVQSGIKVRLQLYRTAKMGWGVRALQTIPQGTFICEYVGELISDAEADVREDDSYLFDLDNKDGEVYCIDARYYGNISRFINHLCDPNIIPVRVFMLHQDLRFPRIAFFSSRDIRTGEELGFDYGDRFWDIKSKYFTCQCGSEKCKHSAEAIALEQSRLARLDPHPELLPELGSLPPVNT
T1 sequence (Q9H9B1 2-1298 limits assumed): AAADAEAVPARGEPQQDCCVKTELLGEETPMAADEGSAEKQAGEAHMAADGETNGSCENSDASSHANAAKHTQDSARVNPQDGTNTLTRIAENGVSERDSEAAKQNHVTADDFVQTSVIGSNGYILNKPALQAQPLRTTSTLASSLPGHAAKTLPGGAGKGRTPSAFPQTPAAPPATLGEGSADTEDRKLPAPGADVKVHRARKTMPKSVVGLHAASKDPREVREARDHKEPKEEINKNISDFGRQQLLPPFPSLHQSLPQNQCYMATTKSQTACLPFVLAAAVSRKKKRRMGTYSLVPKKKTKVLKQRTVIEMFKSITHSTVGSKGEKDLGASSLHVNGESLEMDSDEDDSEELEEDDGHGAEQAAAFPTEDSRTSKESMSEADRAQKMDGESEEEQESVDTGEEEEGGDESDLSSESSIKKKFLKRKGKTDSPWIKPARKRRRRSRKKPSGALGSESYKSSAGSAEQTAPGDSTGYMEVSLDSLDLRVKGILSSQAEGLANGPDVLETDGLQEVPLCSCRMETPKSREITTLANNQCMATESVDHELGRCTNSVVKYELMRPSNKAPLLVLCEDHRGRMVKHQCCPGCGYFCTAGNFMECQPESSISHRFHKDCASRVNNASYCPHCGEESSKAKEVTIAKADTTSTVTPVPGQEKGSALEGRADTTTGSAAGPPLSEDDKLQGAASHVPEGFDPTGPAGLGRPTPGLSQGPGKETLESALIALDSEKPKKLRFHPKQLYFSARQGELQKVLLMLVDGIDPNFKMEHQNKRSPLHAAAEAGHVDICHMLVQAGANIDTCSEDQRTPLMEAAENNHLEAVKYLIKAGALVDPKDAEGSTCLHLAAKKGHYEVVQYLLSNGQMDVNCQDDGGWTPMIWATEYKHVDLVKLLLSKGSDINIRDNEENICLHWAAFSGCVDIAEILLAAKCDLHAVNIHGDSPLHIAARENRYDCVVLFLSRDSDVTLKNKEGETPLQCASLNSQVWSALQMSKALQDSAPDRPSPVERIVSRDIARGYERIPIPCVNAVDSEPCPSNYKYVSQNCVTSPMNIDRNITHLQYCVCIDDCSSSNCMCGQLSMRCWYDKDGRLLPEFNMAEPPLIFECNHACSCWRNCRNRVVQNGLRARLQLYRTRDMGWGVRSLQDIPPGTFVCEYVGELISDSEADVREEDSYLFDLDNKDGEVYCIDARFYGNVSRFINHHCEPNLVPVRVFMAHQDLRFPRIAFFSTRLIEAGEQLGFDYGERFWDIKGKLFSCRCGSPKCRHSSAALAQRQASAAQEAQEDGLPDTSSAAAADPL

[3] = SILAC ratio 3xMBT vs 3xMBTD355N pull-down, 293T cells, all values in log base 2
[4] = SILAC ratio DMSO relative to UNC0638, pull-down with 3xMBT, all values in log base 2
[5] = SILAC ratio, pull-down 3xMBT vs 3xMBTD355N
[6] = SILAC ratio DMSO/UNC0638 of protein pulled down with 3xMBT

Substance	Relative to UNC0638 UNC Heavy [2, 4]	Relative to UNC0638 UNC Light [2, 4]	Relative to UNC0638 Average ([2]; all values in log base 2)	Relative to UNC0638 UNC Heavy [2, 6]	Relative to UNC0638 UNC Light [2, 6]	Relative to UNC0638 Average [2]	3xMBT/D355N UNC Heavy [1, 3]	3xMBT/D355N UNC Light [1, 3]	3xMBT/D355N UNC Heavy [1, 5]	3xMBT/D355N UNC Light [1, 5]
EIF4A1	–	–	–	0.30 log base 2	0.05 log base 2	0.18 log base 2	–	–	3.59 log base 2	3.68 log base 2
EIF4E	–	–	–	0.04 log base 2	0.31 log base 2	0.18 log base 2	–	–	2.40 log base 2	2.40 log base 2
ELAVL1	–	–	–	0.21 log base 2	0.36 log base 2	0.29 log base 2	–	–	1.93 log base 2	2.42 log base 2
FAM98A	–	–	–	0.57 log base 2	0.19 log base 2	0.38 log base 2	–	–	2.99 log base 2	4.03 log base 2
FERMT2	−1.93 log base 2	−0.07 log base 2	−1.00 log base 2	–	–	–	3.33 log base 2	1.42 log base 2	–	–
G6PD [Hit G6PD]	−0.20 log base 2	−0.01 log base 2	−0.10 log base 2	–	–	–	0.75 log base 2	1.96 log base 2	–	–
GAPDH	0.14 log base 2	−0.24 log base 2	−0.05 log base 2	–	–	–	1.86 log base 2	1.59 log base 2	–	–
GRB2	0.36 log base 2	−0.45 log base 2	−0.05 log base 2	–	–	–	3.13 log base 2	1.36 log base 2	–	–
GRWD1	–	–	–	0.24 log base 2	0.09 log base 2	0.17 log base 2	–	–	2.87 log base 2	2.55 log base 2
HDGF	–	–	–	0.23 log base 2	0.22 log base 2	0.23 log base 2	–	–	1.65 log base 2	2.78 log base 2
HNRNPAB	–	–	–	0.09 log base 2	0.32 log base 2	0.20 log base 2	–	–	4.00 log base 2	4.21 log base 2

The next lines start with results.

Relative to UNC0638 UNC Heavy [2, 4]	Relative to UNC0638 UNC Light [2, 4]	Relative to UNC0638 Average ([2]; all values in log base 2)	Relative to UNC0638 UNC Heavy [2, 6]	Relative to UNC0638 UNC Light [2, 6]	Relative to UNC0638 Average [2]	Substance	3xMBT/D355N UNC Heavy [1, 3]	3xMBT/D355N UNC Light [1, 3]	3xMBT/D355N UNC Heavy [1, 5]	3xMBT/D355N UNC Light [1, 5]
−0.03 log base 2	−0.77 log base 2	−0.40 log base 2	–	–	–	EEF1G	−0.67 log base 2	−0.28 log base 2	–	–
–	–	–	0.36 log base 2	0.33 log base 2	0.34 log base 2	EFTUD2	–	–	1.98 log base 2	2.07 log base 2
−0.32 log base 2	0.03 log base 2	−0.15 log base 2	–	–	–	EIF4B	3.26 log base 2	2.50 log base 2	–	–
–	–	–	0.07 log base 2	0.25 log base 2	0.16 log base 2	EIF4G1	–	–	3.18 log base 2	3.31 log base 2
−0.64 log base 2	0.63 log base 2	−0.01 log base 2	–	–	–	EPRS	0.46 log base 2	1.98 log base 2	–	–
0.58 log base 2	−0.59 log base 2	0.00 log base 2	–	–	–	FBXO22	3.56 log base 2	0.77 log base 2	–	–
–	–	–	0.20 log base 2	0.20 log base 2	0.20 log base 2	FOCAD	–	–	1.83 log base 2	2.73 log base 2
–	–	–	1.23 log base 2	−1.01 log base 2	0.11 log base 2	FXR1	–	–	1.60 log base 2	1.73 log base 2
–	–	–	0.23 log base 2	0.15 log base 2	0.19 log base 2	G3BP1 [Hit G3BP1]	–	–	2.02 log base 2	2.72 log base 2
–	–	–	0.41 log base 2	0.03 log base 2	0.22 log base 2	GSK3B	–	–	1.95 log base 2	2.25 log base 2
–	–	–	1.93 log base 2	−0.06 log base 2	0.93 log base 2	GTF3C1	–	–	0.63 log base 2	2.08 log base 2
–	–	–	0.18 log base 2	0.15 log base 2	0.17 log base 2	HIST1H1C	–	–	5.16 log base 2	4.61 log base 2
